The source of these data is patent US20210071114.

The target in series [1] is keratin solution obtained from human heel corneum.
For the next series, the target named is T1, keratin 10.
T1 chain: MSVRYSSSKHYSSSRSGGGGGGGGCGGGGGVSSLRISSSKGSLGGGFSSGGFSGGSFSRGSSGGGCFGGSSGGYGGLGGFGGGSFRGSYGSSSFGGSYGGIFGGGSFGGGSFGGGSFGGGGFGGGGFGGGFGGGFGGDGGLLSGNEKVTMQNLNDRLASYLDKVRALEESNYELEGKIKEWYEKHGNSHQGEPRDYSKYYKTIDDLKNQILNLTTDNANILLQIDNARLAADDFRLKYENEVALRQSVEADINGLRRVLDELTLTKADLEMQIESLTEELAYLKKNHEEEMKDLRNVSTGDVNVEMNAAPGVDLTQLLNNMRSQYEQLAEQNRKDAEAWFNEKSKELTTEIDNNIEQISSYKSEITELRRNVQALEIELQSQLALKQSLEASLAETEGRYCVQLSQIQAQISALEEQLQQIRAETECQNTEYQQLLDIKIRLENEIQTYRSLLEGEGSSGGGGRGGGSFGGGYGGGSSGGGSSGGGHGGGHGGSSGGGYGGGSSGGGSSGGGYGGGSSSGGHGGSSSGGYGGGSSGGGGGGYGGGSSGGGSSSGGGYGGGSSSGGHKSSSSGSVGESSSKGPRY

The target in a further series is T2, FRET substrate GGGYG.
T2 chain: GGGYG

Another series deals with T3, FRET substrate GGGLG.
T3 chain: GGGLG

For series [2], the target named is keratin azure, which uses wool as a raw material (K8500).
The next series deals with T4, FRET substrate GGGSG.
T4 chain: GGGSG

The target of another series is T5, FRET substrate GGGFG.
T5 chain: GGGFG

Series [3] has as its target T6, FRET-GGGGG (FRET substrate having pentaglycine between Nma and Lys(Dnp)).
T6 chain: GGGGG

Series [4] deals with corneocyte-derived insoluble keratin (insoluble corneum fraction from the human neck).
Series [5] concerns the target T7, recombinant loricrin fused with a tag sequence (Recombinant Human Loricrin Protein; Abcam, ab114261).
T7 chain: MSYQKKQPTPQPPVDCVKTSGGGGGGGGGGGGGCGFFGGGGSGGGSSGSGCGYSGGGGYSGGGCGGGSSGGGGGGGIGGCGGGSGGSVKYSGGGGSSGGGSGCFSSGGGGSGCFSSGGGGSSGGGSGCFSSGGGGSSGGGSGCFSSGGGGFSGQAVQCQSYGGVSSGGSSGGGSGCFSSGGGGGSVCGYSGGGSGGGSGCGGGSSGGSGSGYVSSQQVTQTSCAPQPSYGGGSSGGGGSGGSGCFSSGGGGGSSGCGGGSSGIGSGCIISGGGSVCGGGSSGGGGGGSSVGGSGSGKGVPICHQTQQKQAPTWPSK

B1: Aeromonas hydrophila proteinase (AhP) (protein)
chain: AGGQFQLPWRQGYSWKANGAHSHTGSGYPYSSIDVSYDWPGWGGATYTVTAANSGTVTVFSRCQVRVTATNGWATNYYHMSGISVRSGDYVAADTPIGTYASNRNEALCEGGSSTGPHLHFSLLYNGVFQSLQGQRLSSYAVNVGASNYDDNCNRFWLYNQRNGQRYCAWQPLYNNGID
As for B1, in [1], the “Enzymatic degradation of keratin, SDS-PAGE (CBB staining)” value (“Enzymatic degradation of keratin” below) is “bands were detected between the molecular weight marker of 37,000 and the molecular weight marker of 50,000”. Moreover, the “Cleavage of keratin 10, concluded from SDS-PAGE bands and the mass spectrometry of the BLP sample” value in the series with keratin 10 was “BLP and other M23A subfamily enzymes cleaved the glycine-rich regions at both ends of the amino acid sequence of keratin 10”. The Specific activity (U/mg) with FRET substrate GGGYG came to 98 U/mg; with FRET substrate GGGLG, 31 U/mg; in the series with FRET substrate GGGSG it was 10 U/mg; with FRET substrate GGGFG it was 51 U/mg; in series [3], 53 U/mg. Moreover, the “ΔA595 of the supernatant (property of degrading wool keratin)” value (from here on “ΔA595 of the supernatant”) in [2] was “The absorbance of the samples containing Savinase (registered trade name), Alcalase (registered trade name), or proteinase K was increased compared with that of the samples containing BLP, LasA, or AhP”. In series [4], the “Degradation of corneocyte-derived insoluble keratin, SDS-PAGE (ruby staining) of the supernatant” value (“Degradation … of the supernatant” for short) was “A band was detected between the molecular weight marker of 37,000 and the molecular weight marker of 50,000 for all the solutions containing BLP, LasA, and AhP”.

B2: β-lytic metalloprotease (beta-lytic metallopeptidase; BLP) (protein)
chain: SPNGLLQFPFPRGASWHVGGAHTNTGSGNYPMSSLDMSRGGGWGSNQNGNWVSASAAGSFKRHSSCFAEIVHTGGWSTTYYHLMNIQYNTGANVSMNTAIANPANTQAQALCNGGQSTGPHEHWSLKQNGSFYHLNGTYLSGYRITATGSSYDTNCSRFYLTKNGQNYCYGYYVNPGPN
Turning to B2, the “Enzymatic degradation of keratin” value in [1] is “bands were detected between the molecular weight marker of 37,000 and the molecular weight marker of 50,000”. The “Mass spectrometry of the SDS-PAGE band of the enzyme-treated solution” value with keratin 10 is recorded as “the proteins contained in this band region were fragments of keratin 10”. In addition, the Specific activity (U/mg) in the series with FRET substrate GGGYG was determined as 74 U/mg; in the series with FRET substrate GGGLG, 3 U/mg; with FRET substrate GGGSG, 231 U/mg; with FRET substrate GGGFG it was 83 U/mg; in series [3], 186 U/mg. Also, the “ΔA595 of the supernatant” value in series [2] is recorded as “The absorbance of the samples containing Savinase (registered trade name), Alcalase (registered trade name), or proteinase K was increased compared with that of the samples containing BLP, LasA, or AhP”. For the same protein, the “Loricrin-degrading activity, SDS-PAGE and N-terminus sequencing of the remaining bands” value in [5] is recorded as “none of the N-terminus amino acid sequences of the bands were the sequence of loricrin, the bands were inferred to be derived from the tag sequence”. Further, the “Degradation … of the supernatant” value in series [4] was “A band was detected between the molecular weight marker of 37,000 and the molecular weight marker of 50,000 for all the solutions containing BLP, LasA, and AhP”.

B3: Alcalase (registered trade name) (SIGMA, P4860) (protein)
chain: AQTVPYGIPLIKADKVQAQGFKGANVKVAVLDTGIQASHPDLNVVGGASFVAGEAYNTDGNGHGTHVAGTVAALDNTTGVLGVAPSVSLYAVKVLNSSGSGSYSGIVSGIEWATTNGMDVINMSLGGASGSTAMKQAVDNAYAKGVVVVAAAGNSGSSGNTNTIGYPAKYDSVIAVGAVDSNSNRASFSSVGAELEVMAPGAGVYSTYPTNTYATLNGTSMASPHVAGAAALILSKHPNLSASQVRNRLSSTATYLGSSFYYGKGLINVEAAAQ
Turning to B3, the “Enzymatic degradation of keratin” value in [1] was “major bands were lost for the solutions containing Savinase (registered trade name), Alcalase (registered trade name), and proteinase K”. Also, the “ΔA595 of the supernatant” value in [2] is reported as “The absorbance of the samples containing Savinase (registered trade name), Alcalase (registered trade name), or proteinase K was increased compared with that of the samples containing BLP, LasA, or AhP”.

B4: Savinase (registered trade name) (SIGMA, P3111) (protein)
chain: AQSVPWGISRVQAPAAHNRGLTGSGVKVAVLDTGISTHPDLNIRGGASFVPGEPSTQDGNGHGTHVAGTIAALNNSIGVLGVAPSAELYAVKVLGASGSGSVSSIAQGLEWAGNNGMHVANLSLGSPSPSATLEQAVNSATSRGVLVVAASGNSGAGSISYPARYANAMAVGATDQNNNRASFSQYGAGLDIVAPGVNVQSTYPGSTYASLNGTSMATPHVAGAAALVKQKNPSWSNVQIRNHLKNTATSLGSTNLYGSGLVNAEAATR
B4: in [1], the “Enzymatic degradation of keratin” value is “major bands were lost for the solutions containing Savinase (registered trade name), Alcalase (registered trade name), and proteinase K”. In series [2], the “ΔA595 of the supernatant” value was “The absorbance of the samples containing Savinase (registered trade name), Alcalase (registered trade name), or proteinase K was increased compared with that of the samples containing BLP, LasA, or AhP”.

B5: ALE-1 glycylglycine endopeptidase (ALE-1) (protein)
chain: STKVDAPKVEQEAPAKADAPKVEQEAPAKADAPKVEQEAPAKVDAPKVEQEAPAKVDAPKVEQEAPAKADAPKVEQKRTFVREAAQSNHSASWLNNYKKGYGYGPYPLGINGGNHYGVDFFMNVGTPVRAISDGKIVEAGWTNYGGGNEIGLVENDGVHRQWYMHLSKFNVKVGDRVKAGQIIGWSGSTGYSTAPHLHFQRMTNSFSNNTAQDPMPFLKSAGYGSNSTSSSNNNGYKTNKYGTLYKSESASFTANTDIITRLTGPFRSMPQSGVLRKGLTIKYDEVMKQDGHVWVGYNTNSGKRVYLPVRTWNESTGELGPLWGTIK
Turning to B5, in series [1], the “Enzymatic degradation of keratin” value is “degradation of keratin was not observed for the solutions containing M23B subfamily enzymes ALE-1 and lysostaphin”. Further, the Specific activity (U/mg) is 0 U/mg in the series with FRET substrate GGGYG; 0 U/mg with FRET substrate GGGLG; 0 U/mg with FRET substrate GGGSG; 0 U/mg with FRET substrate GGGFG; 3 U/mg in [3].

B6: proteinase K (Kanto Chemical Co., Inc., 34076-92) (protein)
chain: AAQTNAPWGLARISSTSPGTSTYYYDESAGQGSCVYVIDTGIEASHPEFEGRAQMVKTYYYSSRDGNGHGTHCAGTVGSRTYGVAKKTQLFGVKVLDDNGSGQYSTIIAGMDFVASDKNNRNCPKGVVASLSLGGGYSSSVNSAAARLQSSGVMVAVAAGNNNADARNYSPASEPSVCTVGASDRYDRRSSFSNYGSVLDIFGPGTSILSTWIGGSTRSISGTSMATPHVAGLAAYLMTLGKTTAASACRYIADTANKGDLSNIPFGTVNLLAYNNYQA
As for B6, in series [1], the “Enzymatic degradation of keratin” value is “major bands were lost for the solutions containing Savinase (registered trade name), Alcalase (registered trade name), and proteinase K”. For the same protein, the “ΔA595 of the supernatant” value in series [2] is given as “The absorbance of the samples containing Savinase (registered trade name), Alcalase (registered trade name), or proteinase K was increased compared with that of the samples containing BLP, LasA, or AhP”.

B7: Las A protein (LasA or LAS) (protein)
chain: APPSNLMQLPWRQGYSWQPNGAHSNTGSGYPYSSFDASYDWPRWGSATYSVVAAHAGTVRVLSRCQVRVTHPSGWATNYYHMDQIQVSNGQQVSADTKLGVYAGNINTALCEGGSSTGPHLHFSLLYNGAFVSLQGASFGPYRINVGTSNYDNDCRRYYFYNQSAGTTHCAFRPLYNPGLAL
Regarding B7, the “Enzymatic degradation of keratin” value in [1] is “bands were detected between the molecular weight marker of 37,000 and the molecular weight marker of 50,000”. Further, the “Cleavage of keratin 10, concluded from SDS-PAGE bands and the mass spectrometry of the BLP sample” value in the series with keratin 10 is “BLP and other M23A subfamily enzymes cleaved the glycine-rich regions at both ends of the amino acid sequence of keratin 10”. Also, the Specific activity (U/mg) with FRET substrate GGGYG worked out at 29 U/mg; with FRET substrate GGGLG it was 10 U/mg; in the series with FRET substrate GGGSG, 19 U/mg; with FRET substrate GGGFG, 19 U/mg; in series [3], 19 U/mg. Moreover, in series [2], the “ΔA595 of the supernatant” value is “The absorbance of the samples containing Savinase (registered trade name), Alcalase (registered trade name), or proteinase K was increased compared with that of the samples containing BLP, LasA, or AhP”. In addition, the “Degradation … of the supernatant” value in series [4] is “A band was detected between the molecular weight marker of 37,000 and the molecular weight marker of 50,000 for all the solutions containing BLP, LasA, and AhP”.
